The target of test [1] is human type III collagen (Millipore Sigma) (human) (UniProt P02461). The experiment in a line: ELISA on plates coated with collagen III, 0-740 nM A3-IL4. On the technique in general: In an ELISA, binding on a coated surface is turned into a signal by an enzyme label.
The target of test [2] is recombinant mouse IL-4Ra protein (R&D Systems) (mouse) (UniProt P16382). The experiment in a line: ELISA on plates coated with recombinant mouse IL-4Ra (10 µg/mL), 0-740 nM A3-IL4, detected with an antibody against mouse IL-4, A450; Kd from the fitted curve [B].
recombinant mouse IL-4Ra protein (R&D Systems) (mouse), sequence (P16382 26-233 limits assumed): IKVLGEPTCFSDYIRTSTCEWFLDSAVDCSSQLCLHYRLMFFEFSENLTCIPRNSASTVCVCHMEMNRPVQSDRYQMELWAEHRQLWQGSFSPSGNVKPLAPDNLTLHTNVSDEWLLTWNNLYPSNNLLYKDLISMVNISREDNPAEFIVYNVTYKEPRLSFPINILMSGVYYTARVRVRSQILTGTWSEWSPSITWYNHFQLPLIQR
Test [3] has as its target T1, human type III collagen (Millipore Sigma) (human, UniProt P02461 154-1221).
T1 construct: treated as one molecule; also called collagen type III; collagen III
T1 sequence (looked up): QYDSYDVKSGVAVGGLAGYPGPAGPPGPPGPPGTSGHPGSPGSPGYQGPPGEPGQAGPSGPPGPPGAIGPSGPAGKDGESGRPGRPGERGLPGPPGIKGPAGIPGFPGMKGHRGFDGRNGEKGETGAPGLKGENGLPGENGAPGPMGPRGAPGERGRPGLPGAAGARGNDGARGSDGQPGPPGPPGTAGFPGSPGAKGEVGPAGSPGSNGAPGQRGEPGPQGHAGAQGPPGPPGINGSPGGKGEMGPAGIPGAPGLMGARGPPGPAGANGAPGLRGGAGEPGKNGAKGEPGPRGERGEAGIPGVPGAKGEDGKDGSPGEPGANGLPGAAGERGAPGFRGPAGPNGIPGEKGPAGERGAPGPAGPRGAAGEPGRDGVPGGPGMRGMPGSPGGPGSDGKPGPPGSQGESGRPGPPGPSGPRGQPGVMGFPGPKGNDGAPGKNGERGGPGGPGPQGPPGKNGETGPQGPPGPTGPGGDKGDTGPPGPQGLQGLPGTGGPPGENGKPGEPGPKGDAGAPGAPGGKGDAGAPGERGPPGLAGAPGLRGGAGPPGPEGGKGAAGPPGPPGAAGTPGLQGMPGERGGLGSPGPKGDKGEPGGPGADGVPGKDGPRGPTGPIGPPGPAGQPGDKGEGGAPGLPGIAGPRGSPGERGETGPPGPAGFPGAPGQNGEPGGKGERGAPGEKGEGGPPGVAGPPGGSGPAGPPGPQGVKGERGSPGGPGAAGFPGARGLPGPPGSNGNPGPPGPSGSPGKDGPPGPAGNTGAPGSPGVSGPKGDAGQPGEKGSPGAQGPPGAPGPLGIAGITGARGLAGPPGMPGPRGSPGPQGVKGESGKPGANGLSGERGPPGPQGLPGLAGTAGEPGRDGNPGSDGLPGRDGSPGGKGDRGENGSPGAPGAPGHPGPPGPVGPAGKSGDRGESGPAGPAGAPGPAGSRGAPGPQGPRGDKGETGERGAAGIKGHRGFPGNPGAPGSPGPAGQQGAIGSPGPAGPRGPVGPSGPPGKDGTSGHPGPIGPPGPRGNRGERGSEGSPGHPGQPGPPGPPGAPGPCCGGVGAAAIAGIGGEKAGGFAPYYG
The experiment in a line: SPR (Biacore X100), human type III collagen immobilised by amine coupling, CBD-SA-IL-10 flowed, 1:1 Langmuir fit. The method, then: (§1) SPR measurements were carried out with Biacore X100 instrument. In collagen binding experiments, recombinant human type I or type III collagen (Millipore Sigma) were immobilized on a CMS sensor chip by standard amine coupling method (˜1500 resonance units (RUs)) and blocked with ethanolamine. […] In FcRn binding experiments, recombinant mouse FcRn (Acro Biosystems) was immobilized via amine coupling on a C1 chip (GE Healthcare) for ˜200 RU according to the manufacturer's instructions. […] The sensor chip was regenerated with PBS, pH 7.4 for every cycle.
On the technique in general: SPR reads the build-up and loss of mass on a sensor chip optically.

In test [4] the target is T2, human type I collagen (Millipore Sigma) (human, UniProt P02452 162-1218; P08123 80-1119).
T2 construct: treated as one molecule; also called collagen type I
T2 sequence (P02452 162-1218, chain 1 of 2): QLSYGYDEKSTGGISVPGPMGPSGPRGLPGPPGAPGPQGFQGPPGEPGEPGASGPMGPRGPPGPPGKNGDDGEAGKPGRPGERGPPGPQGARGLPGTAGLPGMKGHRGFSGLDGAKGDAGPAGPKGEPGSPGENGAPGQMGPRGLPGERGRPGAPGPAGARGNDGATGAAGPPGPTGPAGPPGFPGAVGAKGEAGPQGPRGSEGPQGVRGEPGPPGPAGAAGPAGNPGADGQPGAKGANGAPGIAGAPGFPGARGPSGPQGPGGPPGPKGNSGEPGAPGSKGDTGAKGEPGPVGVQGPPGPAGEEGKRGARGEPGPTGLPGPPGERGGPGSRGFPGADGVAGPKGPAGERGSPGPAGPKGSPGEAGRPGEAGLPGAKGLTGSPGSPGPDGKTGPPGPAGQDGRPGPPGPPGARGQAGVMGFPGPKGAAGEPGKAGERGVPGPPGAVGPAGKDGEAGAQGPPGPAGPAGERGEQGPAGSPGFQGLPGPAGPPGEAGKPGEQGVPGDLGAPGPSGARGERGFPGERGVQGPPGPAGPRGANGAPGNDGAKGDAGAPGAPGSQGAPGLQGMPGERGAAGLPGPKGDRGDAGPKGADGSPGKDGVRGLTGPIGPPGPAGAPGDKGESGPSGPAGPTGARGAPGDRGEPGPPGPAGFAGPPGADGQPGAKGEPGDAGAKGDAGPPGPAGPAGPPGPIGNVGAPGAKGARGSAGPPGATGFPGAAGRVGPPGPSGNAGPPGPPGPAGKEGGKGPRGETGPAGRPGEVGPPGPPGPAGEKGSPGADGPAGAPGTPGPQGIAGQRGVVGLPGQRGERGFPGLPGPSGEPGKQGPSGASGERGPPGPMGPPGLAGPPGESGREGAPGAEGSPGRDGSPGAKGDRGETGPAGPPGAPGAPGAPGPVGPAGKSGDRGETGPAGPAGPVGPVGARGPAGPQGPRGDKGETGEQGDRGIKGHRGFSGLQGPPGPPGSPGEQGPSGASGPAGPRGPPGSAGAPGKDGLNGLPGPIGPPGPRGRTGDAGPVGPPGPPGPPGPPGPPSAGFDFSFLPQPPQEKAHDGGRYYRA
T2 sequence (P08123 80-1119, chain 2 of 2): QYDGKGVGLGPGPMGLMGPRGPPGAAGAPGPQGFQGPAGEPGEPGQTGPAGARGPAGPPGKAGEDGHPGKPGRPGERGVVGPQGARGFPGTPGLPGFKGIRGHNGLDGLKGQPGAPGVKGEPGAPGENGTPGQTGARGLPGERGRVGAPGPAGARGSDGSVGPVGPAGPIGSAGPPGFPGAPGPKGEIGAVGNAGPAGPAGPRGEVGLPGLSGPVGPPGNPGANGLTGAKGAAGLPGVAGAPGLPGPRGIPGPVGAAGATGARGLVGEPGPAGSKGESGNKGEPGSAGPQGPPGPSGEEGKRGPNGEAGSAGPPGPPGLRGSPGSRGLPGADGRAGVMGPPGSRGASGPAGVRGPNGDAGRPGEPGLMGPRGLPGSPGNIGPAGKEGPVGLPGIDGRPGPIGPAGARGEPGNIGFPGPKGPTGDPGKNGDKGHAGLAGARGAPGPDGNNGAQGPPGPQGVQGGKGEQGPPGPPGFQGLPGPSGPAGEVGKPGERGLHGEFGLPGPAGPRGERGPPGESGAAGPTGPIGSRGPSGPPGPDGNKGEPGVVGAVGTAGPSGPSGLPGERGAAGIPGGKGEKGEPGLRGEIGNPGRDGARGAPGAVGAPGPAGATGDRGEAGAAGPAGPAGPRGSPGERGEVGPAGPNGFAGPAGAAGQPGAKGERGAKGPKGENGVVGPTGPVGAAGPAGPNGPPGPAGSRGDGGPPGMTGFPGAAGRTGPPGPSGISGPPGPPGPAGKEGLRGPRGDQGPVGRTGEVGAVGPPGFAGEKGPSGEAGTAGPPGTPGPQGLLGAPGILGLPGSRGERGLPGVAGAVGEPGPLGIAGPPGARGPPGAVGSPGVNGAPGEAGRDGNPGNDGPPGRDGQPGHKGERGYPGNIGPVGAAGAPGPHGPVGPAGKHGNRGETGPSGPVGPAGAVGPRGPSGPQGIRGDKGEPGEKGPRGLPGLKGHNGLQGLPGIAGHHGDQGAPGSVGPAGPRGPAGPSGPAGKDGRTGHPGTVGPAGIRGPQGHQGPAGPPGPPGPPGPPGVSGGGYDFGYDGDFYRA
In words: SPR (Biacore X100), human type I collagen immobilised by amine coupling, CBD-SA-IL-10 flowed, 1:1 Langmuir fit. The procedure: as §1

Test [5] deals with T3, recombinant mouse FcRn (Acro Biosystems) (mouse, UniProt Q61559 22-297; P01887 21-119).
T3 construct: also called neonatal Fc receptor; murine FcRn recombinant protein
T3 sequence (looked up) 1: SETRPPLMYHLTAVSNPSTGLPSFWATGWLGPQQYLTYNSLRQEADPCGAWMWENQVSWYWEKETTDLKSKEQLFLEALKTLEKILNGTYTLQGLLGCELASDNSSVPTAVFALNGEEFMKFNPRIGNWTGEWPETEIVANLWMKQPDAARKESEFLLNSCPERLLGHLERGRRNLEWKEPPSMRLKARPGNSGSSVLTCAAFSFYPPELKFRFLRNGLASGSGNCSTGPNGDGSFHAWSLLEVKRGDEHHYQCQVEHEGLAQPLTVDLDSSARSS
T3 sequence (looked up) 2: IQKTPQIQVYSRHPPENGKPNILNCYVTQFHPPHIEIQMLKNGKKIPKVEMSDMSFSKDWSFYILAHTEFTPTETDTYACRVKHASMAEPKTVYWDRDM
The experiment in a line: SPR (Biacore X100), mouse FcRn immobilised on a C1 chip, CBD-SA-IL-10 flowed at pH 5.8, 1:1 Langmuir fit. The procedure: as §1

The values below come from US20220118089A1 (UNIVERSITY OF CHICAGO, published 2022).

The term Kd denotes a measure of binding affinity in units of concentration. As to “vWF A3 domain-fused IL-4 (human vWF A3 domain and mouse IL-4 fusion protein)”, the Kd in test [1] is 28.6 nM; in test [2], 100 nM.

B1: Human VWF A3 domain (CBD), mouse serum albumin and mouse IL-10 fusion protein (other)
chain: CSQPLDVVLLLDGSSSLPESSFDKMKSFAKAFISKANIGPHLTQVSVIQYGSINTIDVPWNVVQEKAHLQSLVDLMQQEGGPSQIGDALAFAVRYVTSQIHGARPGASKAVVIIIMDTSLDPVDTAADAARSNRVAVFPVGVGDRYDEAQLRILAGPGASSNVVKLQQVEDLSTMATLGNSFFHKLCSGFSGVGGGSGGGSEAHKSEIAHRYNDLGEQHFKGLVLIAFSQYLQKCSYDEHAKLVQEVTDFAKTCVADESAANCDKSLHTLFGDKLCAIPNLRENYGELADCCTKQEPERNECFLQHKDDNPSLPPFERPEAEAMCTSFKENPTTFMGHYLHEVARRHPYFYAPELLYYAEQYNEILTQCCAEADKESCLTPKLDGVKEKALVSSVRQRMKCSSMQKFGERAFKAWAVARLSQTFPNADFAEITKLATDLTKVNKECCHGDLLECADDRAELAKYMCENQATISSKLQTCCDKPLLKKAHCLSEVEHDTMPADLPAIAADFVEDQEVCKNYAEAKDVFLGTFLYEYSRRHPDYSVSLLLRLAKKYEATLEKCCAEANPPACYGTVLAEFQPLVEEPKNLVKTNCDLYEKLGEYGFQNAILVRYTQKAPQVSTPTLVEAARNLGRVGTKCCTLPEDQRLPCVEDYLSAILNRVCLLHEKTPVSEHVTKCCSGSLVERRPCFSALTVDETYVPKEFKAETFTFHSDICTLPEKEKQIKKQTALAELVKHKPKATAEQLKTVMDDFAQFLDTCCKAADKDTCFSTEGPNLVTRCKDALAGGGSGGGSSRGQYSREDNNCTHFPVGQSHMLLELRTAFSQVKTFFQTKDQLDNILLTDSLMQDFKGYLGCQALSEMIQFYLVEVMPQAEKHGPEIKEHLNSLGEKLKTLRMRLRRCHRFLPCENKSKAVEQVKSDFNKLQDQGVYKAMNEFDIFINCIEAYMMIKMKSHHHHHH
notes: also called CBD-SA-IL-10; CBD-SA-fused IL-10
Usually koff stands for the first-order rate constant of dissociation. By kon is commonly meant the second-order rate constant of association. B1: in test [3], binding was put at a Kd of 8 nM and the koff amounted to 0.0026 s⁻¹. In test [4], the affinity, expressed as Kd, was 12.4 nM and the koff came to 0.0034 s⁻¹. In addition, in test [5], the Kd stood at 1600 nM, the koff worked out at 0.0084 s⁻¹ and the kon was determined as 5210 M⁻¹ s⁻¹.
